Results: patent publication US20160230173A1

Assays:
[1] = target: Doubly mutated GR (double mutagenized GR, both CASP1 cleavage sites LLID and IKQE replaced by alanines), expressed from pLX304 lentivirus (human) (UniProt P04150); assay: cell-based or functional assay
[2] = target: Endogenous glucocorticoid receptor (90-kDa GR) of NALM-6 human leukemia cells (human) (UniProt P04150); assay: cell-based or functional assay
[3] = target: T1, Glucocorticoid receptor (NR3C1) with the LLID motif mutated to AAAA by site-directed mutagenesis of Myc-DDK tagged NR3C1
T1 chain: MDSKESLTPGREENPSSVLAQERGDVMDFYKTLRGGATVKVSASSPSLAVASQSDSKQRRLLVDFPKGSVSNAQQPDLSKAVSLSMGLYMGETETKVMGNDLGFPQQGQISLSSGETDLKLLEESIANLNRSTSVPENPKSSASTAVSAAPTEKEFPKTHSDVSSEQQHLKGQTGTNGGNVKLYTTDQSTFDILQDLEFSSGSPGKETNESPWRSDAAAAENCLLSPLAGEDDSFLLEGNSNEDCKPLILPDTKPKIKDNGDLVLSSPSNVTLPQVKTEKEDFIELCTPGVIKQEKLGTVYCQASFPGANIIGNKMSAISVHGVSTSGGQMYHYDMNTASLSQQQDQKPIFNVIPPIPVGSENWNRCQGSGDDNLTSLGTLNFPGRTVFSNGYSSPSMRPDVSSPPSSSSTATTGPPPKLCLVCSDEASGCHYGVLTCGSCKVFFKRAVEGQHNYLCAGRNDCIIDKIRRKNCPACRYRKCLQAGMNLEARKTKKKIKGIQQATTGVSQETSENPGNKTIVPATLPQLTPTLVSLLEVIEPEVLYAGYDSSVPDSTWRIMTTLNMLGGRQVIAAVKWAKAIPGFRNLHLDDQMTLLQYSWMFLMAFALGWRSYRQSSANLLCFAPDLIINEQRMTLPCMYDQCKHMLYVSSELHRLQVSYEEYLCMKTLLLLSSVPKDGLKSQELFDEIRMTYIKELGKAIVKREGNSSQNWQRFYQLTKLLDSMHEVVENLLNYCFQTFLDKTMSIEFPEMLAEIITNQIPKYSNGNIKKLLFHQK

“Full-length CASP1 (Origene catalog # RC218364; GenBank Accession No. NM_033292) overexpressed in Nalm6 leukemia cells by lentivirus (from UniProt P29466 1-404) (enzyme)” showed a fold decrease in prednisolone LC50 (MTT assay) in CASP1-overexpressing NALM-6 cells expressing GR without CASP1 cleavage sites [1] of 9.4 fold, a GR protein level in CASP1-overexpressing Nalm6 cells 24 hours after activation of CASP1 (western blot) [2] of 35 % reduction and a level of 90-kDa GR after activation of CASP1 (LPS/ATP) in shNT CASP1-overexpressing NALM-6 cells (western blot, normalized for HSP90) [2] of 2 fold lower.

B1: Recombinant human CASP1 (Enzo Life Sciences CASP1 assay kit for drug discovery, catalog number BML-AK701-0001) (protein)
chain: NPAMPTSSGSEGNVKLCSLEEAQRIWKQKSAEIYPIMDKSSRTRLALIICNEEFDSIPRRTGAEVDITGMTMLLQNLGYSVDVKKNLTASDMTTELEAFAHRPEHKTSDSTFLVFMSHGIREGICGKKHSEQVPDILQLNAIFNMLNTKNCPSLKDKPKVIIIQACRGDSPGVVWFKDSVGVSGNLSLPTTEEFEDDAIKKAHIEKDFIAFCSSTPDNVSWRHPTMGSVFIGRLIEHMQEYACSCDVEEIFRKVRFSFEQPDGRAQMPTTERVTLTRCFYLFPGH
B1 was tested, and the “cleavage of mutated GR in CASP1 enzymatic assay (western blot)” value [3] was “Site-directed mutagenesis of the LLID motif (SEQ ID NO: 20) ablated cleavage of the glucocorticoid receptor at this location (FIG. 3B) and revealed a secondary CASP1 cleavage site in the GR”.
